Measurements from publication PMC3642092 (FEBS Open Bio, 2012).

Target: F-actin (filamentous rabbit skeletal muscle actin) (rabbit, UniProt P68135 1-377)
Test: co-sedimentation

Kd [µM]	Binder
123 ± 14	UTR261^T36C/S242C, oxidised (intra-chain disulphide, locked closed) (domain or fragment, intra-chain disulphide between the engineered cysteines C36 and C242) MAKYGEHEASPDNGQNEFSDIIKSRSDEHNDVQKKCFTKWINARFSKSGKPPINDMFTDLKDGRKLLDLLEGLTGTSLPKERGSTRVHALNNVNRVLQVLHQNNVELVNIGGTDIVDGNHKLTLGLLWSIILHWQVKDVMKDVMSDLQQTNSEKILLSWVRQTTRPYSQVNVLNFTTSWTDGLAFNAVLHRHKPDLFSWDKVVKMSPIERLEHAFSKAQTYLGIEKLLDPEDVAVQLPDKKCIIMYLTSLFEVLPQQVTID
74.8 ± 19	UTR261^T36C/S242C, reduced (domain or fragment) MAKYGEHEASPDNGQNEFSDIIKSRSDEHNDVQKKCFTKWINARFSKSGKPPINDMFTDLKDGRKLLDLLEGLTGTSLPKERGSTRVHALNNVNRVLQVLHQNNVELVNIGGTDIVDGNHKLTLGLLWSIILHWQVKDVMKDVMSDLQQTNSEKILLSWVRQTTRPYSQVNVLNFTTSWTDGLAFNAVLHRHKPDLFSWDKVVKMSPIERLEHAFSKAQTYLGIEKLLDPEDVAVQLPDKKCIIMYLTSLFEVLPQQVTID
